Measurements as given in patent US20200010836A1, “Regulation of Gene Expression by Aptamer-Mediated Accessibility of Polyadenylation Signals” (MEIRAGTX, UK II Limited, priority 2017, published 2020).

Test system: luciferase expression
Assay: Firefly luciferase assay of HEK 293 cells transfected with riboswitch constructs, treated with guanosine or guanine
Assay type: cell-based
Conditions: for induction fold of luciferase activity (presence / absence of guanine): 500 μM guanine vs NaOH solvent control; for basal level luciferase expression, % of the pFLuc control vector / basal luciferase expression reduced by % versus control construct pFLuc: absence of guanine treatment; for basal level luciferase expression in the absence of guanine (comparison in words): no guanine, compared with control or parent construct; for induction fold of luciferase activity (presence / absence of guanosine): 500 μM guanosine vs DMSO solvent control; for basal luciferase expression reduced by % versus control construct pFLuc: given as 'reduced by'; for fold induction by guanine compared with other constructs: 500 μM guanine
Protocol: Transfection and aptamer ligand treatment: 3.5×10^4 HEK 293 cells were plated in a 96-well flat bottom plate the day before transfection. Plasmid DNA (500 ng) was added to a tube or a 96-well U-bottom plate. Separately, TransIT-293 reagent (Minis; 1.4 μl) was added to 50 μl opti-mem I media (Life Technologies), and allowed to sit for 5 minutes at room temperature (“RT”). Then, 50 μl of this diluted transfection reagent was added to the DNA, mixed, and incubated at RT for 20 min. Finally, 7 μl of this solution was added to a well of cells in a 96-well plate. Four hours after transfection, the media was aspirated, and new media was added with (i) DMSO (0.5%) or 500 μM guanosine; or (ii) NaOH (2 mM) as solvent control or 500 μM guanine. The induction fold was expressed as the quotient of luciferase activity obtained in the presence of aptamer ligand divided by the value obtained in the absence of the aptamer ligand.
Firefly luciferase assay of cultured cells: Twenty-four hours after media change, plates were removed from the incubator, and equilibrated to RT for several minutes on a lab bench, then aspirated. Glo-lysis buffer (Promega, […]) was added, and the plates allowed to remain at RT for at least 5 minutes. Then, the well contents were mixed by 50 μL trituration, and 20 μL of each sample was mixed with 20 μL of bright-glo reagent (Promega) that had been diluted to 10% in glo-lysis buffer. 96 wells were spaced on an opaque white 384-well plate. Following a 5-min incubation at RT, luminescence was measured using Tecan machine with 500 mSec read time. The luciferase activity was expressed as mean relative light unit (RLU)±S.D.

B1: ATA_DSE_Gua: SEQ ID NO: 16; pFLuc construct containing both ATA_Gua_1 and DSE_Gua_1 switches (nucleic acid)
DNA: AAGGCCAAGAAGGGCGGAAAGATCGCCGTGTAAGCCATACCACATTTGTAGAGGTTTTACTTGCTTTAAAAAACCTCCCACACCTCCCCCTGAACCTGAAACATAAAATGAATGCAATTGTTGTTGTTAACTTGTTTATTGCAGCTTATAATGGTTACAAATAAAGCAATAGCATCACAAATTTCTAAAGGTATAATCGCGTGGATATGGCACGCAAGTTTCTACCGGGCACCGTAAATGTCCGACTACCTTTATTTCGAAAGAAATAAAGCATTTTTTTCACTGCATTCTAGTTGTGGTTTGTCCGAAAGGACAAACCATAATCGCGTGGATATGGCACGCAAGTTTCTACCGGGCACCGTAAATGTCCGACTGGTTTGTAAACTCATCAATGTATCTTAACGCGT
How did the “induction fold of luciferase activity (presence / absence of guanine)” value (shortened to “induction fold … (presence / absence of guanine)”) turn out when B1 was run?
Its value is “approximately 2.1 fold”.

What about the “basal level luciferase expression, % of the pFLuc control vector” value of the same molecule?
Its value is 20%.

What about the “basal level luciferase expression in the absence of guanine (comparison in words)” value of the same molecule?
Its value is “further decreases the basal level”.

B2: ATA_Gua_1: luciferase construct, SEQ ID NO: 1; xpt-guanine aptamer linked to 9 bp effector stem-loop (GAAA loop) embedding AATAAA of SV40 early polyA (nucleic acid)
DNA: AAGGCCAAGAAGGGCGGAAAGATCGCCGTGTAAGCCATACCACATTTGTAGAGGTTTTACTTGCTTTAAAAAACCTCCCACACCTCCCCCTGAACCTGAAACATAAAATGAATGCAATTGTTGTTGTTAACTTGTTTATTGCAGCTTATAATGGTTACAAATAAAGCAATAGCATCACAAATTTCTAAAGGTATAATCGCGTGGATATGGCACGCAAGTTTCTACCGGGCACCGTAAATGTCCGACTACCTTTATTTCGAAAGAAATAAAGCATTTTTTTCACTGCATTCTAGTTGTGGTTTGTCCAAACTCATCAATGTATCTTAACGCGT
With B2 as the molecule, how does the “induction fold of luciferase activity (presence / absence of guanosine)” value read?
The value was 6.7 fold.

And the “basal luciferase expression reduced by % versus control construct pFLuc” value?
Its value is 45%.

B3: Stbl_ATA_Gua_1: SEQ ID NO: 14; ATA_Gua_1 with GAAA loop replaced by more stable TTCG loop (nucleic acid)
DNA: AAGGCCAAGAAGGGCGGAAAGATCGCCGTGTAAGCCATACCACATTTGTAGAGGTTTTACTTGCTTTAAAAAACCTCCCACACCTCCCCCTGAACCTGAAACATAAAATGAATGCAATTGTTGTTGTTAACTTGTTTATTGCAGCTTATAATGGTTACAAATAAAGCAATAGCATCACAAATTTCTAAAGGTATAATCGCGTGGATATGGCACGCAAGTTTCTACCGGGCACCGTAAATGTCCGACTACCTTTATTTCTTCGGAAATAAAGCATTTTTTTCACTGCATTCTAGTTGTGGTTTGTCCAAACTCATCAATGTATCTTAACGCGT
B3 was tested. Which “fold induction by guanine compared with other constructs” value did it give?
Its value is “higher induction fold”.

What about the “basal level luciferase expression in the absence of guanine (comparison in words)” value of the same molecule?
The value was “lower luciferase activity”.

B4: gaat_ATA_Gua_1: SEQ ID NO: 15; ATA_Gua_1 variant containing GAAT loop (nucleic acid)
DNA: AAGGCCAAGAAGGGCGGAAAGATCGCCGTGTAAGCCATACCACATTTGTAGAGGTTTTACTTGCTTTAAAAAACCTCCCACACCTCCCCCTGAACCTGAAACATAAAATGAATGCAATTGTTGTTGTTAACTTGTTTATTGCAGCTTATAATGGTTACAAATAAAGCAATAGCATCACAAATTTCTAAAGGTATAATCGCGTGGATATGGCACGCAAGTTTCTACCGGGCACCGTAAATGTCCGACTACCTTTATTTCGAATGAAATAAAGCATTTTTTTCACTGCATTCTAGTTGTGGTTTGTCCAAACTCATCAATGTATCTTAACGCGT
How did the “fold induction by guanine compared with other constructs” value turn out when B4 was run?
The value was “slightly lower fold induction”.

And the “basal level luciferase expression in the absence of guanine (comparison in words)” value?
The value was “higher basal level luciferase”.

B5: DSE_Gua_1: SEQ ID NO: 5; xpt-guanine aptamer linked to 3′ end of 9 bp stem-loop embedding DSE of SV40 early polyA (nucleic acid)
DNA: AAGGCCAAGAAGGGCGGAAAGATCGCCGTGTAAGCCATACCACATTTGTAGAGGTTTTACTTGCTTTAAAAAACCTCCCACACCTCCCCCTGAACCTGAAACATAAAATGAATGCAATTGTTGTTGTTAACTTGTTTATTGCAGCTTATAATGGTTACAAATAAAGCAATAGCATCACAAATTTCACAAATAAAGCATTTTTTTCACTGCATTCTAGTTGTGGTTTGTCCGAAAGGACAAACCATAATCGCGTGGATATGGCACGCAAGTTTCTACCGGGCACCGTAAATGTCCGACTGGTTTGTAAACTCATCAATGTATCTTAACGCGT
B5 was tested. Which “basal luciferase expression reduced by % versus control construct pFLuc” value did it give?
The value was 35%.

B6: DSE_Gua_4: SEQ ID NO: 8; xpt-guanine aptamer linked to 14 bp stem-loop embedding DSE (nucleic acid)
DNA: AAGGCCAAGAAGGGCGGAAAGATCGCCGTGTAAGCCATACCACATTTGTAGAGGTTTTACTTGCTTTAAAAAACCTCCCACACCTCCCCCTGAACCTGAAACATAAAATGAATGCAATTGTTGTTGTTAACTTGTTTATTGCAGCTTATAATGGTTACAAATAAAGCAATAGCATCACAAATTTCACAAATAAAGCATTTTTTTCACTGCATTCTAGTTGTGGTTTGTCCGAAAGGACAAACCACAACATAATCGCGTGGATATGGCACGCAAGTTTCTACCGGGCACCGTAAATGTCCGACTGTTGTGGAAACTCATCAATGTATCTTAACGCGT
With B6 as the molecule, how does the “luciferase activity in the absence of aptamer ligand guanosine (comparison in words)” value (DMSO treated, compared among constructs and with pFLuc-SV40) read?
Its value is “lowest”.

And the “basal level luciferase expression, % of the pFLuc control vector” value?
Its value is roughly 80%.

B7: SPA_ATA_Gua: SEQ ID NO: 10; xpt-guanine aptamer linked to stem-loop embedding AATAAA of synthetic polyA sequence (nucleic acid)
DNA: AAGGCCAAGAAGGGCGGAAAGATCGCCGTGTAAGGATCCAAGCTTATCGATACCGTCGACCTCGAGGGCCCAGATCTGCGGCAAAAGGTATAATCGCGTGGATATGGCACGCAAGTTTCTACCGGGCACCGTAAATGTCCGACTACCTTTTATTGGAAACAATAAAAGATCTTTATTTTCATTAGATCTGTGTGTTGGTTTTTTGTGTGTCTAGAAATAATTCTTACT
How did the “basal level luciferase expression in the absence of guanine (comparison in words)” value turn out when B7 was run?
The value was “did not result in reduced luciferase activity”.

B8: SPA_DSE_Gua: SEQ ID NO: 11; xpt-guanine aptamer linked to 3′ end of stem-loop embedding DSE of synthetic polyA (nucleic acid)
DNA: AAGGCCAAGAAGGGCGGAAAGATCGCCGTGTAAGGATCCAAGCTTATCGATACCGTCGACCTCGAGGGCCCAGATCTGCGGCCGCAATAAAAGATCTTTATTTTCATTAGATCTGTGTGTTGGTTTTTTGTGTGTCGAAAGACACACAATATAATCGCGTGGATATGGCACGCAAGTTTCTACCGGGCACCGTAAATGTCCGACTATTGTGTGGAAATAATTCTTACT
B8 was tested. Which “induction fold … (presence / absence of guanine)” value did it give?
Its value is 1.9 fold.

B9: mtSPA_ATA_Gua: SEQ ID NO: 13; xpt-guanine aptamer with 9 bp stem embedding AATAAA of mtSPA, 2 GC base pairs added (nucleic acid)
DNA: AAGGCCAAGAAGGGCGGAAAGATCGCCGTGTAAGGATCCAAGCTTATCGATACCGTCGACCTCGAGGGCCCAGATCTGCGGAAAAGGTATAATCGCGTGGATATGGCACGCAAGTTTCTACCGGGCACCGTAAATGTCCGACTACCTTTTATTGCGAAAGCAATAAAATATCTTTATTTTCATTACATCTGTGTGTTGGTTTTTTGTGTGTCTAGAAATAATTCTTACT
B9 was tested. Which “induction fold … (presence / absence of guanine)” value did it give?
Its value is 1.7 fold.

And the “basal level luciferase expression in the absence of guanine (comparison in words)” value?
The value was “decreased”.

B10: DSE_Gua_2: SEQ ID NO: 6; xpt-guanine aptamer linked to 10 bp stem-loop embedding DSE (nucleic acid)
DNA: AAGGCCAAGAAGGGCGGAAAGATCGCCGTGTAAGCCATACCACATTTGTAGAGGTTTTACTTGCTTTAAAAAACCTCCCACACCTCCCCCTGAACCTGAAACATAAAATGAATGCAATTGTTGTTGTTAACTTGTTTATTGCAGCTTATAATGGTTACAAATAAAGCAATAGCATCACAAATTTCACAAATAAAGCATTTTTTTCACTGCATTCTAGTTGTGGTTTGTCCGAAAGGACAAACCAATAATCGCGTGGATATGGCACGCAAGTTTCTACCGGGCACCGTAAATGTCCGACTTGGTTTGAAACTCATCAATGTATCTTAACGCGT
For B10, which “induction fold of luciferase activity (presence / absence of guanosine)” value is on record?
The value was 3.7 fold.
